The DeepSol protein solubility set

experiment: soluble on expression in E. coli; label from the status in PepcDB or PDB records

Row | Sequence | soluble on expression in E. coli
1 | MGSDKIHHHHHHMKSTTVPSEGGGGLDATTRTSVQPHPLHGPDATWQETNCYIDLWIELLHAWGLDPRAALPFTVAQDFEGDHFTFFKYPQADLETLYGTVVQEMAVYDTLQAHVVTQVERGHTVLVEVDSYYLPDTHATAYKREHVKTTVAIDNIDPHAQRLSYFHSLGYHSAHDEDYRGLMRLSRELSGNGNILFPYAECAKRVRPALTMPAMADASVALMRQHLDRLPAINPVTLWRREFDAHMDTLLARDDAYFHLYTFNLPRQLGANFEMLHHWLRWLDEQGRGNPLAARAAESAATIAAEAKVLQFRLARAVARRRADPCTQSLDVLECCYDKTVEGLLSAFGDTRLAAA | not soluble
2 | MGSDKIHHHHHHMVNLDGGYTAYEQQHNNESFKLEKDKEIQIKDNRKTFNYSNLQCPGPIVNISKEIKNIAIGDQIEVVVTDHGFLNDIKSWVKQTGHTLVRLNDSGNEIRAIIQKEENKNIEVTHTKNGTTIVLFSGELDKAVAAMIIANGAKAAGRDVTIFCTFWGLNALKKIQSQRIKKKGIAKLFDFMLPNSPIKMPISKMNMFGVGNLMMRYVMKKKNVDDLPSLINQAVEQGVKLIACTMSMDVMGISKEELRDDVEYGGVGAYIGYTEQANHNLFI | not soluble
3 | MPKHIIDEIESLSLATGFILKNGDFTEEKSLLVKPTMGGTWHWSPIKGLHSQDSIRKTRAYILQEIARMTIYPEAGVSPTLRRKKGIVIGVARAVSTELYHIVENDLIEEEMDTAKLAVGYDGETIVIKNDVDSKWKEELSKPLNLSETENKVIQRLLLISHGVIPLQGYSLVTTSHHYNDKSKRAFSAVERQFFSRCDQLSWWKEDEEALRDAMWHKAGHPVKISFKKEIACSITIKQSLANAGIGSVACRLPATEDVVWKAEAYRNLLKTLSPIFDDEVKWEALDEMLSYLNHFSAARPTEVVTVHNAPTHLMSLDTREKVVTWIAQWCSQNAEKVAICLGFHTALLENAGKFPGPSYSLMVLRTNVDSYILGTKLFSDYTVFKAKLRQLMDSVS | soluble
4 | NNNLTWNIYANMTWNKNKIIKLSTDEPIEYTYQIIEEGRPYRQFYMKEYAGVDRENGKPLWYLNEEGNETTSDYNAAAKRYVGDADPKVLGGFGTNLSWKGFDFNMNFTYRLGGKVFDSGASFTGFGMANRTPLKDVALNSWTEENKDAKYPQYIYGDPNKATQTSSRFLYSSNFLRISNMTLGYTVPVNLTKKIFIQKLRAYISIDNLYTFTSNDFVGYNPETYSNGVIAWQYPATRTFIGGIQLSF | not soluble
5 | MGSDKIHHHHHHMRILISPPMRFGKEFLGGMRRTLEVYSRMGEEVYLCVDERTLPQVDPEISPLLSKFHLVSSSSTDKKTYLKGFLNCLKYARKVDVLISYSEYSLSVYYTWLLSLFSRKPFIVVVHHVTEEIRGSKFLRTVIARSKGIICLDNPEVYEELKSLFPNKVILTSTNGVSVEDYYTSEEKICDGIFVGNYGERKGSRYLFQIWDKVNEKIDAKLCIIGKGWSEIPKNSVYYGFVTEREKIDLLAKSKVFVFPSLYEGFALAVTEALSAYLPVVTWDLKWSERYPVAIRVTYPDISSFAEEVVKLLKDEKLRKSIGEKSRELAKTLNWEKAAEMEKKAIYKIMESK | not soluble
6 | MPAWAARLGASRDQQRALEEERSRTQAALQVMPHMLIELDADERLLRGHPGWLDRLPTLGPMAPGQGLQDFLPVDLATEVRRVLAEVETTGAPVSRDWQVRQAGARVWLAISAARLPPLA | not soluble
7 | MGSDKIHHHHHHMKHYALLISFLALSACSQGSEDLNEWMAQTRREAKAEIIPFQAPTLPVAPVYSPPQLTGPNAFDFRRMETDKKGENAPDTKRIKETLEKFSLENMRYVGILKSGQKVSGFIEAEGYVYTVGVGNYLGQNYGRIESITDDSIVLNELIEDSTGNWVSRKAELLLNSSDKNTEQAAAPAAEQN | not soluble
8 | MRYNQSDNKPFEEVLEASLSRRSILKGGLGISAMTAFGAFGLAGCNSSSSGTSASNGSGVSKAVLNFDSIPGSLTDAVSIPQGYTAQVLVPWGTPLNAQGSAWKNDGSNTSSDQLNALGMHHDGMHFFPLNDSTTDGLLCINHEYIDTSALHPNGPTVANGVRTIVDEVRKEINAHGVSVVRIQLEDNMWKLADTDPLNRRYTGATVMDLSGPVAHTALTVTRFSPDGSQARGTLNNCGNGYTPWGTYLTCEENWPGYFVNAGTRTEEQDRIGVDDKSTRYLWETLAGNSEERLDEFTRFNVAPTGTSSADDYRNEANGHGYIVEIDPYTQNSRAKKRTALGRFRHEGCAFGKLEAGKPVVFYSGHDSRFEYLYKFESAAAWDPADANPANRLATGDKYMDEGTLYVARFNEDSTGTWLPLTLDSVTTSGGTLADHFNSLAEIIINTAGAADLVGATPMDRPEWCSVDPFTGSVYLTLTNNTRRTDETNPANPRLNNKFGHVIRWDEGTSATDFTWDIFVFGSPANGDADTNRSGLNELNQFASPDGLAFDGRGILWIQTDNGADEVTSYTNDQMLAVVPSKLTNENGAQAVIGADNQAELKRFFVGPNGCEVTGFTISPDYKSLFVNIQHPGNWPYSDDAAQETPAGTTVRPRAATVVIRREDGGEIAVLEHHHHHH | soluble
9 | APYRYLAAGAADVISNLSAVKDWKLAHRLKGEEFSSSAAAMSEYSAQEVLSQINEIKKYEESSVWLVTKNILASGTAMAIAGNSRPGSGSEHLFAHALEAAGVENMLHGEMCAMGTVISMYLHDENWQQIKEAFDNLGISIRSRDYGIEDEIVINALRTAHAIRPERYTILGESDMSYDAAVKALELTGI | not soluble
10 | MNNIRLLNQNDLDSYIELMKFGHHNYEWDRYYLENVSIDRLKTILSNHTDYWNIFGAFEDDELVATCTLKQMNYVGKCHKAILENNFVKNNDEIVNRELINHIIQYAKEQNIETLMIAIASNNISAKVFFSSIGFENLAFEKNASKIGNEYFDENWLIYSTTE | not soluble
11 | MSSKGSVVLAYSGGLDTSCILVWLKEQGYDVIAYLANIGQKEDFEEARKKALKLGAKKVFIEDVSREFVEEFIWPAIQSSALYEDRYLLGTSLARPCIARKQVEIAQREGAKYVSHGATGKGNDQVRFELSCYSLAPQIKVIAPWRMPEFYNRFKGRNDLMEYAKQHGIPIPVTPKNPWSMDENLMHISYEAGILENPKNQAPPGLYTKTQDPAKAPNTPDILEIEFKKGVPVKVTNVKDGTTHQTSLELFMYLNEVAGKHGVGRIDIVENRFIGMKSRGIYETPAGTILYHAHLDIEAFTMDREVRKIKQGLGLKFAELVYTGFWHSPECEFVRHCIAKSQERVEGKVQVSVLKGQVYILGRESPLSLYNEELVSMNVQGDYEPTDATGFININSLRLKEYHRLQSKVTAK | not soluble
12 | MINKDEEVANRFSDPSKKLVEYVTDFSDMRDEDIELTKPIYENYGNFQLLNETGIIRTDEEIKELYNCKGEFGSTDEVTDMSF | not soluble
13 | MPTVQTIYSLEKAPEATKDKEPLVVYATSVDWKWVFSYPEQDIETVNYLNIPVDRPILCKISSADSMASLWIPQLGGQKYAMAGMLMDQYLQADKVGTYEGRNANFTGEHFADQEFDVNAVTEKDFNSWVKKTQNEAPKLTKEKYDELMLPENVDELTFSSTHLKYVDHGQDAEYAMEARKRLGYQAVSPHCKTDPFENVKKNEFKKSDDTEE | not soluble
14 | MGSDKIHHHHHHMNLLSPSDPIVLSTAYLPPIQYFTKLLHPEGVLLETAENFVKQSYRNRCHIAGPEGMQPLTIPVEKSPSPKAPIRDIRISEHGNWRHLHLNALISSYGSAPFFDHYMTEIEPFYRHKYTFLWDFNLDLLSVCLEWLDISPLIMFTFEYVEDCPNDFRYSIRPKQAPEDESFRPRVYYRTFAHKYGFLPNLSIVDLIFHEGPSAIQTLKECIR | not soluble
15 | MEYIPDNSDEGRIVAMTLAVALRRALASVLGVSATELGYAVRPVRLDNEQSVLAVQLYDIISGGAGFASSAPLHIEAVLKGMVKQLGCRHCDTACSECLLDSQTRHDHDQLDRKAAQAWLGEDFSHYIGLPEAEKLEHHHHHH | not soluble
